Measured values: PMC10933793
Ends that are not written are not given here.

Molecular target: PL^pro domain of SARS-CoV-2 nsp3 (E746-T1063) (SARS-CoV-2)

B1: K193-branched IRF3_(189-197)-ISG15 oligopeptide 4 (peptide)
chain 1: ENPLKRLLV-NH2
chain 2: LSTVFMNLRLRGG
modifications: also: lactam at chain A 5 at chain B 13 to a chain's C-terminus
Binder B1 has a PL^pro-catalysed isopeptide amide bond hydrolysis by SPE-MS, time course to ~240 min (0.2 uM PL^pro, 2.0 uM peptide, 50 mM Tris pH 8.0, ambient temperature) of 20%.
